Biological target: T1, H-NS (Salmonella enterica serovar Typhimurium ATCC 14028s) (UniProt A0A0F6B244)
T1 sequence: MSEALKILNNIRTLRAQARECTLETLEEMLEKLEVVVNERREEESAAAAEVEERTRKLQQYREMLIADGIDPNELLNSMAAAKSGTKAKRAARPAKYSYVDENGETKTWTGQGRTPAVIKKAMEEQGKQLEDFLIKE
Assay: EMSA
Conditions: 20 mM Tris-HCl, 1 mM EDTA, 100 ug/mL BSA, 1 mM DTT, 10% glycerol, 80 mM NaCl, 25 C, 30 min; 50 ng DNA in 20 uL, protein 0-9.76 uM; pH 7.5 or 5.5 in Fig. 5B …

| Sequence | binding |
| --- | --- |
| GCCGTGCTGTTCACTCATCCGCGCCACCAGCCGGTCAAGGTGCAGACGGGCAATCACGCCACGCGACGTTTCGTCCAGCGGCAGGTAAGGGATCACCGTCACGCGGCCCAGAAATGCCGCCGGGAAATGCTTGCGCAATTCCGGCATTAGCGCCTCTTTAAGCCCCGTAGCATCGGGCATTAAGGCCGGATCTTCACACATCTGGCTGATGAGGTCGGAACCCACGTTGGTGGTGAGTAATAGCGTGGTG (double strand) [STM0272 fragment] | no binding |
| CAAAGACGCCGAGAATGTGAAAAAATTCGTTCAGGCTTATCAGTCTGATGAAGTGTACGAAGCCGCAAATAAAGTTTTTAATGGCGGCGCGGTGAAAGGCTGGTAAGTTTTAGGCTGATTCCACAATCTGTAATATTATTCAGGACGGGCTATTGCCCGTCTTGTCATTTATGCAAGCTCCTGATTCAATATCTGGC (double strand) [yaeB promoter (PyaeB)] | binds |
